According to article PMC6891578, “An extracellular domain of the EsaA membrane component of the type VIIb secretion system: expression, purification and crystallization” (Acta Crystallographica. Section F, Structural Biology …, 2019):

Target: the molecule itself
Assay: SEC-MALS; Superdex 200 10/300 GL, 150 mM NaCl, 20 mM Tris–HCl pH 8.0, 3 mM DTT; 100 µl of EsaAex_2 at 4 mg/ml loaded, 0.5 ml/min

B1: EsaAex_2 (extracellular domain of EsaA, amino acids 275–689) (domain or fragment)
chain: MSQKDSVELDNYINALKQMDSQIDQQSSMQDTGKEEYKQTVKENLDKLREIIQSQESPFSKGMIEDYRKQLTESLQDELANNKDLQDALNSIKMNNAQFAENLEKQLHDDIVKEPDTDTTFIYNMSKQDFIAAGLNEGEANKYEAIVKEAKRYKNEYNLKKPLAEHINLTDYDNQVAQDTSSLINDGVKVQRTETIKSNDINQLTVATDPHFNFEGDIKINGKKYDIKDQSVQLDTSNKEYKVEVNGVAKLKKDAEKDFLKDKTMHLQLLFGQANRQDEPNDKKATSVVDVTLNHNLDGRLSKDALSQQLSALSRFDAHYKMYTDTKGREDKPFDNKRLIDMMVDQVINDMESFKDDKVAVLHQIDSMEENSDKLIDDILNNKKNTTKNKEDISKLIDQLENVKKTFAEEPQEPK
notes: EsaA, membrane component of the type VIIb secretion system, S. aureus USA300, amino acids 275–689 of the 1009-residue protein; The His tag was cleaved with TEV protease; also called purified extracellular domain; source: E. coli BL21 Star, purified (HisTrap, TEV cleavage, Ni-NTA flowthrough, SEC); not shown: His6, N-terminal, cleaved
  stoichiometry N: 2
